Data: US20130023423, “TRANSPOSON NUCLEIC ACIDS COMPRISING A CALIBRATION SEQUENCE FOR DNA SEQUENCING” (Finnzymes Oy, published 2013)

Legend:
Conditions in all cases: chain copies: 4
MuA transposase [1] = target: T1, MuA transposase (UniProt P07636 P07636:1-663); test: EMSA; transpososome complex band about 300 bp; 30 C 1 h, Tris pH 8, EDTA, NaCl, 10% DMSO; complexes fragment gDNA with 10 mM MgCl2 (FIG. 2)
MuA transposase [2] = target: T1, MuA transposase; test: EMSA; worked well in complex formation and gDNA fragmentation (FIG. 4)
MuA transposase [3] = target: T1, MuA transposase; test: EMSA; no complex formed, no transposition activity; 30 C 1 h
MuA transposase [4] = target: T1, MuA transposase; test: EMSA; complexes formed and active; 30 C 1 h
MuA transposase [5] = target: T1, MuA transposase; test: EMSA; worked well in complex formation and gDNA fragmentation; the cited figure shows fragmentation

T1 sequence (P07636 whole entry, the tested form may be a part, one chain of several): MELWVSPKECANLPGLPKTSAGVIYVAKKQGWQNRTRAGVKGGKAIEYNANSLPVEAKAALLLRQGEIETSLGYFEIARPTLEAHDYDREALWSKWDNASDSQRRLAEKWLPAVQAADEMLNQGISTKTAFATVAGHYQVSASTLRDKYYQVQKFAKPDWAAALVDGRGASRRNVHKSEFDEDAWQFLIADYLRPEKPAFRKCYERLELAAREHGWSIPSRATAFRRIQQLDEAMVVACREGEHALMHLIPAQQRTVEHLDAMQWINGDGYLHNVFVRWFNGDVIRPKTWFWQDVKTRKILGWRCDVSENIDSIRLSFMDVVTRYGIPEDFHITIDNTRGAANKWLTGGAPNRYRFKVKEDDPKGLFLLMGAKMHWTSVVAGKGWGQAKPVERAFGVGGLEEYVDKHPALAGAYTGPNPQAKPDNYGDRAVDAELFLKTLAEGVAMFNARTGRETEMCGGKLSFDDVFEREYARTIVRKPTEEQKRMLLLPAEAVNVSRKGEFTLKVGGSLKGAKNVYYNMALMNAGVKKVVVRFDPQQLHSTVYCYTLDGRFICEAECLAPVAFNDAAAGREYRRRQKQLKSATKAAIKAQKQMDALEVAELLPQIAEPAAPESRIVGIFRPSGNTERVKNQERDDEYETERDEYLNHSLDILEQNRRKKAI

B1: native Mu transposon end (dsDNA)
DNA 1: GTTTTCGCATTTATCGTGAAACGCTTTCGCGTTTTTCGTGCGCCGCTTCA
DNA 2: TGAAGCGGCGCACGAAAAACGCGAAAGCGTTTCACGATAAATGCGAAAAC
MuA transposase [1]
  binding result: binds

B2: Mu end with internal TCAG key (5th, 6th, 8th bases) (dsDNA)
DNA 1: GTTTTCGCATTTATCGTGAAACGCTTTCGCGTTTTTCGTGCGTCAGTTCA
DNA 2: TGAACTGACGCACGAAAAACGCGAAAGCGTTTCACGATAAATGCGAAAAC
MuA transposase [2]
  binding result: binds

B3: Mu end with 3' TCAG key (dsDNA)
DNA 1: GTTTTCGCATTTATCGTGAAACGCTTTCGCGTTTTTCGTGCGCCGCTCAG
DNA 2: CTGAGCGGCGCACGAAAAACGCGAAAGCGTTTCACGATAAATGCGAAAAC
MuA transposase [3]
  binding result: no binding

B4: Mu end with GTCA key (dsDNA)
DNA 1: GTTTTCGCATTTATCGTGAAACGCTTTCGCGTTTTTCGTGCGCCGCGTCA
DNA 2: TGACGCGGCGCACGAAAAACGCGAAAGCGTTTCACGATAAATGCGAAAAC
MuA transposase [4]
  binding result: binds

B5: Mu end modified at 10th and 11th bases (dsDNA)
DNA 1: GTTTTCGCATTTATCGTGAAACGCTTTCGCGTTTTTCGTCAGCCGCTTCA
DNA 2: TGAAGCGGCTGACGAAAAACGCGAAAGCGTTTCACGATAAATGCGAAAAC
MuA transposase [5]
  binding result: binds

B6: Mu end with TGCA key (dsDNA)
DNA 1: GTTTTCGCATTTATCGTGAAACGCTTTCGCGTTTTTCGTGCGCCGCTGCA
DNA 2: TGCAGCGGCGCACGAAAAACGCGAAAGCGTTTCACGATAAATGCGAAAAC
MuA transposase [4]
  binding result: binds
